Experimental data as given in publication PMC4807364, “Interaction between Simian Virus 40 Major Capsid Protein VP1 and Cell Surface Ganglioside GM1 Triggers Vacuole Formation” (mBio, 2016).

Columns and labels:
[1] = target: C-terminal deletion VP1 mutant (ΔC), truncated after amino acid position 305 (pentamers) (simian virus 40) (UniProt P03087); experiment: negative-stain electron microscopy; purified pentamers diluted in PBS pH 7.2 at 20 µg/ml, stained with 1% uranyl acetate, Tecnai T12; step: VP1 chains to pentamer
[2] = target: the molecule itself; experiment: as above

| Molecule | stoichiometry N [1] | stoichiometry N [2] |
| --- | --- | --- |
| C-terminal deletion VP1 mutant (ΔC), truncated after amino acid position 305 (pentamers) (from UniProt P03087 1-305) (domain or fragment) | 5 | – |
| full-length wild-type SV40 VP1 (pentamers) (natural protein, major capsid protein VP1 of simian virus 40, full length, wild type, in the pGEX-4T2 plasmid; The virus stocks are strain 776, but no strain is stated for the bacterial construct; The preparations held pentamers and higher-order structures; no intact VLPs were seen; also called major capsid protein VP1; wild-type VP1 pentamers) MAPTKRKGSCPGAAPKKPKEPVQVPKLVIKGGIEVLGVKTGVDSFTEVECFLNPQMGNPDEHQKGLSKSLAAEKQFTDDSPDKEQLPCYSVARIPLPNINEDLTCGNILMWEAVTVKTEVIGVTAMLNLHSGTQKTHENGAGKPIQGSNFHFFAVGGEPLELQGVLANYRTKYPAQTVTPKNATVDSQQMNTDHKAVLDKDNAYPVECWVPDPSKNENTRYFGTYTGGENVPPVLHITNTATTVLLDEQGVGPLCKADSLYVSAVDICGLFTNTSGTQQWKGLPRYFKITLRKRSVKNPYPISFLLSDLINRRTQRVDGQPMIGMSSQVEEVRVYEDTEELPGDPDMIRYIDEFGQTTTRMQ | – | 5 |
